Data published in patent publication US10738094B2, “Peptides and combination of peptides for use in immunotherapy against ovarian cancer and other cancers” (immatics biotechnologies GmbH, priority 2015, dated 2020).

Target: HLA-A*02:01 (Homo sapiens, UniProt P04439, D140Y/D185E/D98H/E176V/E277Q/G131W/G231S/I119V/I121R/I166T/I218V/L300P/L318F/N151K/N90K/P208A/P217A/Q86G/Q94H/R138H/R169H/T345S)
Experiment: MHC binding assay (UV-ligand exchange, beta2m ELISA)
Settings: binding to HLA-A*02:01 ranged by peptide exchange yield (UV-ligand exchange, β2m ELISA)
From the text: Candidate peptides for T cell based therapies according to the present invention were further tested for their MHC binding capacity (affinity). The individual peptide-MHC complexes were produced by UV-ligand exchange, where a UV-sensitive peptide is cleaved upon UV-irradiation, and exchanged with the peptide of interest as analyzed. Only peptide candidates that can effectively bind and stabilize the peptide-receptive MHC molecules prevent dissociation of the MHC complexes. To determine the yield of the exchange reaction, an ELISA was performed based on the detection of the light chain (β2m) of stabilized MHC complexes. The assay was performed as generally described in Rodenko et al. (Rodenko et al., 2006).
96 well MAXISorp plates (NUNC) were coated over night with 2 ug/ml streptavidin in PBS at room temperature, washed 4× and blocked for 1 h at 37° C. in 2% BSA containing blocking buffer. […] Peptide-MHC monomers of the UV-exchange reaction were diluted 100 fold in blocking buffer. Samples were incubated for 1 h at 37° C., washed four times, incubated with 2 ug/ml HRP conjugated anti-β2m for 1 h at 37° C., washed again and detected with TMB solution that is stopped with […]. Absorption was measured at 450 nm. Candidate peptides that show a high exchange yield (preferably higher than 50%, most preferred higher than 75%) are generally preferred for a generation and production of antibodies or fragments thereof, and/or T cell receptors or fragments thereof, as they show sufficient avidity to the MHC molecules and prevent dissociation of the MHC complexes.

Q: Which Peptide exchange does the source give for “586 (KLKPGDLVGV; listed as Homo sapiens) [compound 586]” here?
A: The Peptide exchange was ““+++” (≥50 = +++)”.

Q: With “427 (ALLPLSPYL; listed as Homo sapiens) [compound 427]” as the substance, how does the Peptide exchange read?
A: Its Peptide exchange is ““+++” (≥50 = +++)”.

Q: “152 (ILFEDIFDV; listed as Homo sapiens) [compound 152]” was tested. Which Peptide exchange did it give?
A: The Peptide exchange was ““+++” (≥50 = +++)”.

Q: How did the Peptide exchange turn out when “100 (YLLSTNAQL; listed as Homo sapiens) [compound 100]” was run?
A: The Peptide exchange was ““++++” (≥75% = ++++)”.

Q: How did the Peptide exchange turn out when “362 (TLYGLSVLL; listed as Homo sapiens) [compound 362]” was run?
A: Its Peptide exchange is ““+++” (≥50 = +++)”.

Q: Which Peptide exchange does the source give for “487 (LLINSVFHV; listed as Homo sapiens) [compound 487]” here?
A: Its Peptide exchange is ““+++” (≥50 = +++)”.

Q: For “462 (KLAKQPETV; listed as Homo sapiens) [compound 462]”, which Peptide exchange is on record?
A: Its Peptide exchange is ““+++” (≥50 = +++)”.

Q: With “59 (IMEDIILTL; listed as Homo sapiens) [compound 59]” as the substance, how does the Peptide exchange read?
A: The Peptide exchange was ““+++” (≥50 = +++)”.

Q: “182 (MLLEAPGIFL; listed as Homo sapiens) [compound 182]” was tested. Which Peptide exchange did it give?
A: The Peptide exchange was ““+++” (≥50 = +++)”.

Q: With “508 (ILAQEQLVVGV; listed as Homo sapiens) [compound 508]” as the substance, how does the Peptide exchange read?
A: Its Peptide exchange is ““+++” (≥50 = +++)”.

Q: For “298 (VMITKLVEV; listed as Homo sapiens) [compound 298]”, which Peptide exchange is on record?
A: The Peptide exchange was ““+++” (≥50 = +++)”.

Q: For “43 (VLSSLEINI; listed as Homo sapiens) [compound 43]”, which Peptide exchange is on record?
A: Its Peptide exchange is ““++” (≥20% = ++)”.

Q: Which Peptide exchange does the source give for “575 (YLISQVEGHQV; listed as Homo sapiens) [compound 575]” here?
A: Its Peptide exchange is ““+++” (≥50 = +++)”.

Q: How did the Peptide exchange turn out when “148 (ALNPEIVSV; listed as Homo sapiens) [compound 148]” was run?
A: Its Peptide exchange is ““++” (≥20% = ++)”.

Q: How did the Peptide exchange turn out when “17 (GLLPGDRLVSV; listed as Homo sapiens) [compound 17]” was run?
A: Its Peptide exchange is ““+++” (≥50 = +++)”.

Q: How did the Peptide exchange turn out when “180 (FQIDPHSGLVTV; listed as Homo sapiens) [compound 180]” was run?
A: The Peptide exchange was ““++” (≥20% = ++)”.

Q: For “519 (GLLHLTLLL; listed as Homo sapiens) [compound 519]”, which Peptide exchange is on record?
A: The Peptide exchange was ““+++” (≥50 = +++)”.

Q: How did the Peptide exchange turn out when “492 (SLFDGFADGLGV; listed as Homo sapiens) [compound 492]” was run?
A: The Peptide exchange was ““+++” (≥50 = +++)”.

Q: How did the Peptide exchange turn out when “281 (ILRESTEEL; listed as Homo sapiens) [compound 281]” was run?
A: Its Peptide exchange is ““+++” (≥50 = +++)”.

Q: Which Peptide exchange does the source give for “593 (GLPRFGIEMV; listed as Homo sapiens) [compound 593]” here?
A: The Peptide exchange was ““+++” (≥50 = +++)”.

Q: With “388 (SLTIDGIRYV; listed as Homo sapiens) [compound 388]” as the substance, how does the Peptide exchange read?
A: The Peptide exchange was ““+++” (≥50 = +++)”.

Q: For “465 (QLCDLNAEL; listed as Homo sapiens) [compound 465]”, which Peptide exchange is on record?
A: The Peptide exchange was ““+++” (≥50 = +++)”.

Q: “83 (ILAPTVMMI; listed as Homo sapiens) [compound 83]” was tested. Which Peptide exchange did it give?
A: Its Peptide exchange is ““+++” (≥50 = +++)”.

Q: With “197 (ALGPEGGRV; listed as Homo sapiens) [compound 197]” as the substance, how does the Peptide exchange read?
A: The Peptide exchange was ““++” (≥20% = ++)”.

Q: “136 (YLADPSNLFVV; listed as Homo sapiens) [compound 136]” was tested. Which Peptide exchange did it give?
A: The Peptide exchange was ““+++” (≥50 = +++)”.

Q: For “330 (QLALKVEGV; listed as Homo sapiens) [compound 330]”, which Peptide exchange is on record?
A: The Peptide exchange was ““+++” (≥50 = +++)”.

Q: With “493 (GLLGEKTQDLIGV; listed as Homo sapiens) [compound 493]” as the substance, how does the Peptide exchange read?
A: The Peptide exchange was ““+++” (≥50 = +++)”.

Q: How did the Peptide exchange turn out when “207 (GLTSTNAEV; listed as Homo sapiens) [compound 207]” was run?
A: Its Peptide exchange is ““++” (≥20% = ++)”.

Q: For “117 (ILPDGEDFLAV; listed as Homo sapiens) [compound 117]”, which Peptide exchange is on record?
A: The Peptide exchange was ““+++” (≥50 = +++)”.

Q: Which Peptide exchange does the source give for “570 (ALANQIPTV; listed as Homo sapiens) [compound 570]” here?
A: The Peptide exchange was ““++” (≥20% = ++)”.

Q: How did the Peptide exchange turn out when “283 (ALYIGDGYVIHLA; listed as Homo sapiens) [compound 283]” was run?
A: The Peptide exchange was ““+++” (≥50 = +++)”.

Q: Which Peptide exchange does the source give for “332 (YLISELEAA; listed as Homo sapiens) [compound 332]” here?
A: Its Peptide exchange is ““+++” (≥50 = +++)”.

Q: For “189 (ALQRKLPYV; listed as Homo sapiens) [compound 189]”, which Peptide exchange is on record?
A: Its Peptide exchange is ““+++” (≥50 = +++)”.

Q: For “371 (FLQAHLHTA; listed as Homo sapiens) [compound 371]”, which Peptide exchange is on record?
A: Its Peptide exchange is ““++++” (≥75% = ++++)”.

Q: How did the Peptide exchange turn out when “501 (LLDPNVKSIFV; listed as Homo sapiens) [compound 501]” was run?
A: Its Peptide exchange is ““+++” (≥50 = +++)”.

Q: Which Peptide exchange does the source give for “145 (FLATSGTLAGI; listed as Homo sapiens) [compound 145]” here?
A: Its Peptide exchange is ““++” (≥20% = ++)”.

Q: For “340 (ALLSMTFPL; listed as Homo sapiens) [compound 340]”, which Peptide exchange is on record?
A: The Peptide exchange was ““++++” (≥75% = ++++)”.

Q: How did the Peptide exchange turn out when “238 (YLISFQTHI; listed as Homo sapiens) [compound 238]” was run?
A: The Peptide exchange was ““+++” (≥50 = +++)”.

Q: Which Peptide exchange does the source give for “29 (KMLGIPISNILMV; listed as Homo sapiens) [compound 29]” here?
A: Its Peptide exchange is ““+++” (≥50 = +++)”.

Q: How did the Peptide exchange turn out when “122 (FLLAEDDIYL; listed as Homo sapiens) [compound 122]” was run?
A: The Peptide exchange was ““+++” (≥50 = +++)”.

Q: How did the Peptide exchange turn out when “558 (GLLENIPRV; listed as Homo sapiens) [compound 558]” was run?
A: The Peptide exchange was ““+++” (≥50 = +++)”.

Q: Which Peptide exchange does the source give for “139 (SVMEVNSGIYRV; listed as Homo sapiens) [compound 139]” here?
A: Its Peptide exchange is ““+++” (≥50 = +++)”.

Q: “239 (AAFAGKLLSV; listed as Homo sapiens) [compound 239]” was tested. Which Peptide exchange did it give?
A: The Peptide exchange was ““+++” (≥50 = +++)”.

Q: With “402 (VLFSGALLGL; listed as Homo sapiens) [compound 402]” as the substance, how does the Peptide exchange read?
A: The Peptide exchange was ““++” (≥20% = ++)”.

Q: “250 (ALSEEGLLVYL; listed as Homo sapiens) [compound 250]” was tested. Which Peptide exchange did it give?
A: The Peptide exchange was ““+++” (≥50 = +++)”.

Q: How did the Peptide exchange turn out when “310 (FLVDTPLARA; listed as Homo sapiens) [compound 310]” was run?
A: Its Peptide exchange is ““++++” (≥75% = ++++)”.

Q: How did the Peptide exchange turn out when “129 (GLLDGGVDILL; listed as Homo sapiens) [compound 129]” was run?
A: The Peptide exchange was ““+++” (≥50 = +++)”.

Q: “289 (VLLEIEDLQV; listed as Homo sapiens) [compound 289]” was tested. Which Peptide exchange did it give?
A: Its Peptide exchange is ““++++” (≥75% = ++++)”.

Q: “91 (IMQDFPAEIFL; listed as Homo sapiens) [compound 91]” was tested. Which Peptide exchange did it give?
A: The Peptide exchange was ““++++” (≥75% = ++++)”.

Q: Which Peptide exchange does the source give for “321 (GLFEDVTQPGILL; listed as Homo sapiens) [compound 321]” here?
A: Its Peptide exchange is ““++++” (≥75% = ++++)”.

Q: With “488 (FLAEDPKVTL; listed as Homo sapiens) [compound 488]” as the substance, how does the Peptide exchange read?
A: The Peptide exchange was ““+++” (≥50 = +++)”.

Q: For “130 (FLWNGEDSALL; listed as Homo sapiens) [compound 130]”, which Peptide exchange is on record?
A: The Peptide exchange was ““+++” (≥50 = +++)”.

Q: “466 (VLIANLEKL; listed as Homo sapiens) [compound 466]” was tested. Which Peptide exchange did it give?
A: The Peptide exchange was ““++++” (≥75% = ++++)”.

Q: Which Peptide exchange does the source give for “353 (YLFEMDSSL; listed as Homo sapiens) [compound 353]” here?
A: Its Peptide exchange is ““++” (≥20% = ++)”.

Q: Which Peptide exchange does the source give for “523 (YQIPRTFTL; listed as Homo sapiens) [compound 523]” here?
A: The Peptide exchange was ““++” (≥20% = ++)”.

Q: Which Peptide exchange does the source give for “554 (LLMPSSEDLLL; listed as Homo sapiens) [compound 554]” here?
A: Its Peptide exchange is ““+++” (≥50 = +++)”.

Q: For “526 (RLAEVGQYEQV; listed as Homo sapiens) [compound 526]”, which Peptide exchange is on record?
A: The Peptide exchange was ““++” (≥20% = ++)”.

Q: Which Peptide exchange does the source give for “227 (ALMNTLLYL; listed as Homo sapiens) [compound 227]” here?
A: The Peptide exchange was ““++” (≥20% = ++)”.
